Target: T1, recombinant mouse E-selectin-human Fc chimera (mouse, UniProt Q00690 22-557)
T1 construct: Bought reagent (R&D Systems); Used as the probe in western blots and detected with HRP goat anti-human Ig; also called E-selectin-Ig chimera; E-Ig; not shown: human Fc
T1 sequence (looked up): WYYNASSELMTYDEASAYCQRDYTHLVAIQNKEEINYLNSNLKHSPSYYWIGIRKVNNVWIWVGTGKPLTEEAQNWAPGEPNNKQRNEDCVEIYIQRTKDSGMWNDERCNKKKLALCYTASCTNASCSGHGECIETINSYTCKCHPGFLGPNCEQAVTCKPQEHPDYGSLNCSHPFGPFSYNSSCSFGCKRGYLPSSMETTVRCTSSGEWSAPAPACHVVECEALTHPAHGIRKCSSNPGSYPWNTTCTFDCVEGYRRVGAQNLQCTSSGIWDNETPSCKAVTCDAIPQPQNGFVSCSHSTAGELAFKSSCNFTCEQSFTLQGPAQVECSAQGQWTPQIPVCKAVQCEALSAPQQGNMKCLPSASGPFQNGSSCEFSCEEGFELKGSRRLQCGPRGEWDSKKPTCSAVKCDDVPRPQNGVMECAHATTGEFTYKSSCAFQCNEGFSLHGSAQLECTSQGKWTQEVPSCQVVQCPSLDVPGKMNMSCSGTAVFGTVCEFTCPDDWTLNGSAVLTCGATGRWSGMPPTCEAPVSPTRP
Assay: western blot of ML lysates and WGA-purified glycoproteins, reducing SDS-PAGE

binding result: binds
B1: P-selectin glycoprotein ligand-1 (PSGL-1), Cutaneous Lymphocyte Antigen glycoform, from ML lysates (ligand, human, UniProt Q14242 42-412, looked up)
chain: QATEYEYLDYDFLPETEPPEMLRNSTDTTPLTGPGTPESTTVEPAARRSTGLDAGGAVTELTTELANMGNLSTDSAAMEIQTTQPAATEAQTTQPVPTEAQTTPLAATEAQTTRLTATEAQTTPLAATEAQTTPPAATEAQTTQPTGLEAQTTAPAAMEAQTTAPAAMEAQTTPPAAMEAQTTQTTAMEAQTTAPEATEAQTTQPTATEAQTTPLAAMEALSTEPSATEALSMEPTTKRGLFIPFSVSSVTHKGIPMAASNLSVNYPVGAPDHISVKQCLLAILILALVATIFFVCTVVLAVRLSRKGHMYPVRNYSPTEMVCISSLLPDGGEGPSATANGGLSKAKSPGLTPEPREDREGDDLTLHSFLP
modifications: sialofucosylated glycans
notes: Named only by the position of its band in the blot; also called CLA; ~140 kDa E-selectin ligand
